# According to patent US20170137467A1 (CHROMOTEK, published 2017):
# Where a chain is given by its changes, count along the chain named. Square brackets hold non-standard residues; d marks the D form. GABA = NCCCC(=O)O
# B1: BC2 nanobody (BC2-Nb) (VHH)
# VHH: QVQLVESGGGLVQPGGSLTLSCTASGFTLDHYDIGWFRQAPGKEREGVSCINNSDDDTYYADSVKGRFTIFMDNAKDTVYLQMNSLKPEDTAIYYCAEARGCKRGRYEYDFWGQGTQVTVSS
# notes: immobilised on agarose/sepharose beads in this assay; also called BC2 nanotrap (immobilised form); not shown: C-terminal 6xHis-tag added by pHEN6 vector
# B2: BC2-NbR106S (VHH)
# VHH: B1 VHH with R106S
# notes: immobilised on beads in this assay; not shown: C-terminal 6xHis-tag added by pHEN6 vector
# Assays:
# Experiment in all cases: library pulldown, LC-MS of supernatant; ratio vs GFP-Nb control (0=captured, 1=not captured)
# [1] = target: T1, BC2T A6N (human)
# T1 construct: position 6 library (BC2TA6X), row N
# T1 peptide: Ac-PDRKANVSHWQQ-NH2
# Method in brief: (§1)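 Unbound peptide left in supernatant after 1 h pulldown in PBS/0.01% CHAPS measured by reversed-phase LC-MS (8–30% eluent B gradient, 20 min).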
# [2] = target: T2, BC2T A6R (human)
# T2 construct: position 6 library (BC2TA6X), row R
# T2 peptide: Ac-PDRKARVSHWQQ-NH2
# Method in brief: as §1
# [3] = target: T3, BC2T A6D (human)
# T3 construct: position 6 library (BC2TA6X), row D
# T3 peptide: Ac-PDRKADVSHWQQ-NH2
# Method in brief: as §1
# [4] = target: T4, BC2T A6E (human)
# T4 construct: position 6 library (BC2TA6X), row E
# T4 peptide: Ac-PDRKAEVSHWQQ-NH2
# Method in brief: as §1
# [5] = target: T5, BC2T P1W (human)
# T5 construct: position 1 library, row W
# T5 peptide: Ac-WDRKAAVSHWQQ-NH2
# Method in brief: as §1
# [6] = target: T6, BC2T V7Y (human)
# T6 construct: position 7 library, row Y
# T6 peptide: Ac-PDRKAAYSHWQQ-NH2
# Method in brief: as §1
# [7] = target: T7, BC2T P1C(Abu) (human, SMILES …)
# T7 construct: position 1 library, row C(Abu) / C*
# T7 peptide: Ac-[GABA]DRKAAVSHWQQ-NH2
# Method in brief: as §1
# [8] = target: T8, BC2T P1E (human)
# T8 construct: position 1 library, row E
# T8 peptide: Ac-EDRKAAVSHWQQ-NH2
# Method in brief: as §1
# [9] = target: T9, BC2T D2P (human)
# T9 construct: position 2 library, row P
# T9 peptide: Ac-PPRKAAVSHWQQ-NH2
# Method in brief: as §1
# [10] = target: T10, BC2T D2W (human)
# T10 construct: position 2 library, row W
# T10 peptide: Ac-PWRKAAVSHWQQ-NH2
# Method in brief: as §1
# [11] = target: T11, BC2T D2N (human)
# T11 construct: position 2 library, row N
# T11 peptide: Ac-PNRKAAVSHWQQ-NH2
# Method in brief: as §1
# [12] = target: T12, BC2T D2K (human)
# T12 construct: position 2 library, row K
# T12 peptide: Ac-PKRKAAVSHWQQ-NH2
# Method in brief: as §1
# [13] = target: T13, BC2T D2H (human)
# T13 construct: position 2 library, row H
# T13 peptide: Ac-PHRKAAVSHWQQ-NH2
# Method in brief: as §1
# [14] = target: T14, BC2T R3W (human)
# T14 construct: position 3 library (BC2TR3X), row W
# T14 peptide: Ac-PDWKAAVSHWQQ-NH2
# Method in brief: as §1
# [15] = target: T15, BC2T R3Q (human)
# T15 construct: position 3 library (BC2TR3X), row Q
# T15 peptide: Ac-PDQKAAVSHWQQ-NH2
# Method in brief: as §1
# [16] = target: T16, BC2T R3C(Abu) (human, SMILES …)
# T16 construct: position 3 library (BC2TR3X), row C(Abu) / C*
# T16 peptide: Ac-PD[GABA]KAAVSHWQQ-NH2
# Method in brief: as §1
# [17] = target: T17, BC2T R3K (human)
# T17 construct: position 3 library (BC2TR3X), row K
# T17 peptide: Ac-PDKKAAVSHWQQ-NH2
# Method in brief: as §1
# [18] = target: T18, BC2T K4T (human)
# T18 construct: position 4 library, row T
# T18 peptide: Ac-PDRTAAVSHWQQ-NH2
# Method in brief: as §1
# [19] = target: T19, BC2T A5N (human)
# T19 construct: position 5 library, row N
# T19 peptide: Ac-PDRKNAVSHWQQ-NH2
# Method in brief: as §1
# [20] = target: T20, BC2T A5Y (human)
# T20 construct: position 5 library, row Y
# T20 peptide: Ac-PDRKYAVSHWQQ-NH2
# Method in brief: as §1
# [21] = target: T21, BC2T A5H (human)
# T21 construct: position 5 library, row H
# T21 peptide: Ac-PDRKHAVSHWQQ-NH2
# Method in brief: as §1
# [22] = target: T22, BC2T A5D (human)
# T22 construct: position 5 library, row D
# T22 peptide: Ac-PDRKDAVSHWQQ-NH2
# Method in brief: as §1
Binder,ratio [1],ratio [2],ratio [3],ratio [4],ratio [5],ratio [6],ratio [7],ratio [8],ratio [9],ratio [10],ratio [11],ratio [12],ratio [13],ratio [14],ratio [15],ratio [16],ratio [17],ratio [18],ratio [19],ratio [20],further results
B1,1,1.1,1,1.1,0.1,0.1,0.1,0.9,0.6,0.2,0.2,0.2,0.1,0.8,0.5,0.5,0.2,0.2,0.3,0.1,ratio [21]: 0.2; ratio [22]: 0.5
B2,1,0.7,1,1,0.3,0.3,0.3,0.8,0.8,0.3,0.3,0.2,0.2,1,0.9,0.9,0.5,0.7,0.5,0.2,ratio [21]: 0.3; ratio [22]: 0.9
